Assay [1] addresses T1, MDMX (In-house, 40 kD), O15151.
T1 chain: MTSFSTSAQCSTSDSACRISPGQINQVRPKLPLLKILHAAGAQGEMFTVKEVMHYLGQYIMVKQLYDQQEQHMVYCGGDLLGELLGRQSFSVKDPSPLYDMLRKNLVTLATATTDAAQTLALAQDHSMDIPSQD
Description: competitive FP vs FAM-labelled linear peptide; grade + = greater than 1000 nM. The conditions noted are these: remark: other sources report otherwise.

A further assay addresses T2, MDMX (In-house, 40 kD) (UniProt O15151).
T2 sequence (looked up): T1 chain
Description: competitive fluorescence polarization, MDMX with FAM-labeled linear peptide; graded scale of paragraph 458. In general terms: Fluorescence polarisation rises when a labelled molecule tumbles more slowly, as on binding a larger partner.

The next assay concerns the target MDM2 (In-house, 41 kD) (UniProt Q00987). Description: competitive fluorescence polarization, MDM2 with FAM-labeled linear peptide; graded scale of paragraph 458.
In assay [2] the target is MDM2 (In-house, 41 kD), Q00987. Description: competitive FP vs FAM-labelled linear peptide; grade + = greater than 1000 nM. As to conditions: remark: other sources report otherwise.
MDM2 (In-house, 41 kD), Q00987, sequence (Q00987 1-138 limits assumed): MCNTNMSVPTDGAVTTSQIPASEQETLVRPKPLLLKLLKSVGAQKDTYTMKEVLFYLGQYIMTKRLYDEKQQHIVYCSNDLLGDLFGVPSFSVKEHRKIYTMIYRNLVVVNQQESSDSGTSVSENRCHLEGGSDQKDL

Bridges are numbered along the chain shown (N, C = ends). [ ]: non-standard residue; d: D form. pY = N[C@@H](Cc1ccc(OP(=O)(O)O)cc1)C(=O)O; R8 = C=CCCCCCC[C@@](C)(N)C(=O)O; hLeu = CC(C)CC[C@H](N)C(=O)O; S5 = C=CCCC[C@](C)(N)C(=O)O; Cou6 = not defined here; Cou8 = not defined here; βAla = NCCC(=O)O Where only a bound is given, the exact number is not on record here.

MDM2 (In-house, 41 kD), sequence (Q00987 1-138 limits assumed): as above

B1: SP447 (peptide)
peptide: Cou8-[βAla]LTF[R8]EYWAQ[hLeu][S5]SAA-NH2
modifications: staple 5-12; reading uncertain
B1: in assay [1], the IC50 was above 1 µM and the Ki was above 1 µM.

B2: peptidomimetic macrocycle SP615, Ac-LTF$r8EpYWAQL$AAAAAa-NH2 (peptide)
peptide: Ac-LTF[R8]E[pY]WAQL[S5]AAAAA[dA]-NH2
modifications: staple 4-11
Consider B2, for which the Ki with MDMX (In-house, 40 kD) was below 0.01 µM; with MDM2 (In-house, 41 kD), below 0.01 µM.

B3: SP446 (peptide)
peptide: Cou6-[βAla]LTF[R8]EYWAQ[hLeu][S5]SAA-NH2
modifications: staple 5-12; reading uncertain
With B3, in assay [1], the IC50 is above 1 µM and the Ki was above 1 µM.

B4: SP560 (peptide)
peptide: Ac-LTA[R8]EYWAQL[S5]AAAAA[dA]-NH2
modifications: staple 4-11
Regarding B4, the Ki in assay [1] and in assay [2] was above 1 µM throughout.

As a reminder, the IC50 is the concentration at which inhibition is half-maximal. Broadly, the Ki is a measure of affinity in units of concentration, obtained from inhibition or displacement.

The values above are taken from patent publication US8927500.
